In patent US20190367620A1 (Merck KGaA, published 2019):

Tests used:
Human FGFR1-IIIc D3-His6 = target: T1, Human FGFR1-IIIc D3-His6 (human, UniProt P11362 254-376); assay: SPR (NBD indicates no binding detected)
T1 construct: also called D3 domain; F3FR1c-D3
T1 sequence: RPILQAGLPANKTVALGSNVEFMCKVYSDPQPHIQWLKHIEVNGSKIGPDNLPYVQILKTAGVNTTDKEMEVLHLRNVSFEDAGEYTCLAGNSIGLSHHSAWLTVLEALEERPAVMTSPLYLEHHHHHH

[1] = target: T2, FGFR1 D2 point mutant A58G (human, UniProt P11362 22-254); assay: SPR; free energy change relative to wild-type D2
T2 chain: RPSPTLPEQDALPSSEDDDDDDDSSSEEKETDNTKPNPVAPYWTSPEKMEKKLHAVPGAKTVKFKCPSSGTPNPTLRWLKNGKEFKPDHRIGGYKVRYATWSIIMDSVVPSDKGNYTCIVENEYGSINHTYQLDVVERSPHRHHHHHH
Summary of the method: (§1)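 Point mutants of FGFR1 D2, expressed in HEK cells, were tested by SPR against mAb #A08 captured via anti-human Fc to ~200 RU, in HBS-EP+ at 25° C. KD came from a 1:1 Langmuir fit (koff/kon), and ΔΔG was derived from the ratio of wild-type to mutant KD.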

[2] = target: T3, FGFR1 D2 point mutant V96A (human, UniProt P11362 22-254); assay: SPR; free energy change relative to wild-type D2
T3 chain: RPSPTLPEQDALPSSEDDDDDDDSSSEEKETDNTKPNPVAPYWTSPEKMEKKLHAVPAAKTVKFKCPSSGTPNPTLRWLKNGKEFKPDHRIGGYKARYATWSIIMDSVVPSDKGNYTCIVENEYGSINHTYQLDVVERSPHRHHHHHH
Summary of the method: as §1

[3] = target: T4, FGFR1 D2 point mutant K65A (human, UniProt P11362 22-254); assay: SPR; free energy change relative to wild-type D2
T4 chain: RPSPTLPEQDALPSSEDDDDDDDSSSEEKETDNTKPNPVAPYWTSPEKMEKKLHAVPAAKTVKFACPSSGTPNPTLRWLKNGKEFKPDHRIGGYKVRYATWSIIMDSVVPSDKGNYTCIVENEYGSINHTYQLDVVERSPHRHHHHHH
Summary of the method: as §1

[4] = target: T5, FGFR1 D2 point mutant K52A (human, UniProt P11362 22-254); assay: SPR; free energy change relative to wild-type D2
T5 chain: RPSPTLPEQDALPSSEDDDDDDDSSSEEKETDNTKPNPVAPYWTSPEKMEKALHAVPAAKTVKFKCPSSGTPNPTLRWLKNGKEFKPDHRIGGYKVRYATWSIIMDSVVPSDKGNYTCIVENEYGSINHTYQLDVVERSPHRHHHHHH
Summary of the method: as §1

[5] = target: T6, human FGFR1b-IIIb extracellular domain with a HIS tag (human); assay: ELISA, antibody titrated on huFGFR1b-IIIb, O.D. 450 nm [panel huFGFR1b-IIIb]
T6 construct: also called huFGFR1b-IIIb; hFGFR1b-IIIb
T6 chain: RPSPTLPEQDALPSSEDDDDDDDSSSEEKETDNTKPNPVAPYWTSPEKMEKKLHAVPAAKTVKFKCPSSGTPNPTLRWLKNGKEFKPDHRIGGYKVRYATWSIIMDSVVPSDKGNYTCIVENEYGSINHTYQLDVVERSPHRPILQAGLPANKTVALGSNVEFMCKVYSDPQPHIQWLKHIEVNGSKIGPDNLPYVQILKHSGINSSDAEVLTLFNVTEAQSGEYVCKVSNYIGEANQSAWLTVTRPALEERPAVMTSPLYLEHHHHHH

FGFR1 on NCI-H520 cells = FGFR1 on NCI-H520 cells (human, UniProt P11362 22-822); assay: cell-based or functional assay
Sequence of FGFR1 on NCI-H520 cells (P11362 22-822): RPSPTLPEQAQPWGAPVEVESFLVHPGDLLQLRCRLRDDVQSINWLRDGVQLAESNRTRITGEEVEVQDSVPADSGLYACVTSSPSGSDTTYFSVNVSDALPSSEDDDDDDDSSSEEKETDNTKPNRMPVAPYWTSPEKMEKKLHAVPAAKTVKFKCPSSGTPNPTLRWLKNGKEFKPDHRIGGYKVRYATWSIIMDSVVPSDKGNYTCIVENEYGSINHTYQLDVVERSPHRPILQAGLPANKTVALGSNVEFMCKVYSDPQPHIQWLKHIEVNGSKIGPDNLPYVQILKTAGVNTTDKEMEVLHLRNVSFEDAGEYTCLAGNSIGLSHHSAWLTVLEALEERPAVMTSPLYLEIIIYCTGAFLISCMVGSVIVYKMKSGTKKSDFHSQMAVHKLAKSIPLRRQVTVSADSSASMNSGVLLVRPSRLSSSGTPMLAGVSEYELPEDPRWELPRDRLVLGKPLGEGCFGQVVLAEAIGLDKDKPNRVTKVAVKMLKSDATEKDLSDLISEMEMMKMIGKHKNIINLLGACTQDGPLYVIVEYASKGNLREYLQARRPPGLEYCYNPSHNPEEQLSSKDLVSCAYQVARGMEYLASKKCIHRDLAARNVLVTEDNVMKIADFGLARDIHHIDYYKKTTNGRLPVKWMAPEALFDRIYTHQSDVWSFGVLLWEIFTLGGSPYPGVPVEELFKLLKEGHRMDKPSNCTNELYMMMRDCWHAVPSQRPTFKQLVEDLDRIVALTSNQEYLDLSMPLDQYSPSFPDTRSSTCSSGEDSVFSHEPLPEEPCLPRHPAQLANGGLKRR

[6] = target: T7, human FGFR1b-IIIc extracellular domain with a HIS tag (human, UniProt P11362 22-376); assay: ELISA, antibody titrated on huFGFR1b-IIIc, O.D. 450 nm [panel huFGFR1b-IIIc]
T7 construct: also called huFGFR1b-IIIc; hFGFR1b-IIIc
T7 sequence: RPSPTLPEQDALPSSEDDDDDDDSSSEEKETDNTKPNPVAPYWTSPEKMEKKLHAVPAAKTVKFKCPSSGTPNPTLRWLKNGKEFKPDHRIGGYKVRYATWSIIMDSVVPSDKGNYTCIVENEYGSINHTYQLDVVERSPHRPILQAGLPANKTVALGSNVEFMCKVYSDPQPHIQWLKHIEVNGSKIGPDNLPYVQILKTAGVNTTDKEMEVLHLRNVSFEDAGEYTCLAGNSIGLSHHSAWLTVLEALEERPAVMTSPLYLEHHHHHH

binding result (Human FGFR1-IIIc D3-His6): no binding
ΔΔGmut [1]: 1.44 kcal/mol
ΔΔGmut [2]: -0.02 kcal/mol
ΔΔGmut [3]: -0.04 kcal/mol
ΔΔGmut [4]: 0.11 kcal/mol
EC50 (read off the curve) [5]: ~0.03 nM
IC50, inhibition of P-FGFR1 in NCI-H520 cells, FGF1 stimulated (FGFR1 on NCI-H520 cells): 4 nM
IC50, inhibition of P-FGFR1 in NCI-H520 cells, FGF2 stimulated (FGFR1 on NCI-H520 cells): 0.2 nM
IC50, inhibition of P-FGFR1 in NCI-H520 cells, non-stimulated (hashtag: estimated IC50, poor fit) (FGFR1 on NCI-H520 cells): ~1000 nM
EC50 (read off the curve) [6]: ~0.03 nM
B1: mAb #A08 (antibody, V domains shown)
VH: EVQLQESGPGLVKPSGTLSLTCAVSGGSISSNNWWSWVRQPPGKGLEWIGEIYHSGSTSYNPSLKSRVTISVDKSKNQFSLKLNSVTAADTAVYYCARGTDWFDPWGQGTLVTVSS
VL: QAVLTQPPSVSVAPGQTARITCGGNNIGSESVHWYQQKPGQAPVLVVYDDSDRPSGIPERFSGSNSGNTATLTISRVEAGDEADYYCQVWDSTSDHRVFGGGTKLTVL
notes: Only variable domains are tied to the name mAb #A08 (hit); also called #A08 hit; mAb #08
